Measured values published in the domain aggregation screens of Martell et al. (2025).

Assay: soluble fraction after stress (log2 fold change); higher = more stays soluble; pooled small domains, quantitative proteomics
Conditions: stress: pH 4
Summary of the method: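 Pooled custom libraries of small protein domains were stressed at pH 4 and then measured by high-throughput quantitative proteomics. The fold change in the amount of each domain that stays soluble after the acid stress serves as a measure of aggregation propensity. Fold changes are given on a log2 scale, and higher values mean more of the domain stayed soluble.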

Sequence	soluble fraction (log2)
HMQVPDLYRTLGVGRDATTEAIEAAYVGWQARLSAGEPISTQEWERLRYAHEVLSNPQRRSLYDSLVAET	0.0568
HMTNELVNVNKLLDVMEPSIPLTALEIMTRLGIKSKETLRNSYLNPAIKLGMINLTSPLKPTSKNQMYYK	0.111
HMTTKGGLVRDTVLNEFRDSEFTRREVELVLNGVASERTIRGALSEMVERGELTQVNFGISTRYRLNQ	-0.536
HMVPVSIYAYNKIKTAILNNELMPGEKLVEASLAETLNMSRTPIREALRQLEQEGFVTYYPQKGSIVSH	-0.91
HMQNEVMPYSTFLSEVNSGNVTKVKIDHEQLTGTLKSGKQFTTYILDAATLPSIVAEKGVEVEVVPP	0.195
HMQYKVMDVTVDGNPVIEFQNLNSKIKWIENNPDAIIQNIKTSSFEADQKRIVGTSRGPFWIVIKPDF	-0.299
HMIRVVSIEDQPWFVAADVLKSLGMPTDKGVGKYLLALGSDERMLTTHGQIGGKGMAVTTIISESGLY	-0.703
HMRVESVGDRIRRLRKSLGLTQVKLAQMLGIKAPSVVQWESDKTNLSGENLLNAAKLFGVTPDYILYGG	0.233
HMPLSLESVSEGGRNDTAARIAGYLIAKGLNVDFARFFLQSWNTKNKPPLDDTEIDTIVNSIMKTHERKNQ	-0.476
HMESYTGLAVTEDDDGWSNVRSGNSTSYSILFKIYAGEKFNILSNDGKWSYIDFNGRKGYIHNSIIRKY	0.31
HMDYQEVEFEKLGKEILTKILLDINKKATKKTLKILIDGFNYDSYRSFYIAIGKAQISSDSILELLQH	-0.524
HMEKIDYLSIGHRLRAYRIASSLKAEDVAESLGISRAAVYRLEKGEIVKIETLDNLARLLNTSLSSLLG	-1.3
HMNTQGWEIFEGRITTADTDLNPSGWIRIDGQRIFVISDAGFIDKGKEVSILSVDGNRVLVRK	-0.632
HMEQVTMSNFLDKWGTSTKSPNAWYTSLSPMQKAEAKLLKEESGLTWNKWYEKNIYVGDGTN	-0.264
HMLFKNASGTVVSRIQSQVDGQINIRTGSGNAPDYAFVAKPDGAVELYHNGTKQFETGSSGVLLP	-0.527
HMTIFGWQQDETGKWYRNADGTFYENGWKEIDGAQYYFDENGYVTTGWLELDGKDYYFDEEGKYDSTKVR	-1.25
HMNEAMIMIDLKGKSRDEAVKELDELNLKYRFTGNGIVKDQKPKAGEEINSDTVVEVELSEIK	-0.105
HMNSVTLEHIVYDFRVFNMLKGSGINDIDELIKAAEDGRLFKIIGSNLTYKRIKKSAAEFGVILPDKPG	-0.45
HMDIMNNILINRIKKILTEQNMSKADLSRLTGISNSSLSEYLNGKYEPKQDKIALIAKALHVSPAWLMGF	0.166
HMAVLEGPAGKLGIVRFEANRSFTGMGHERFSSADQAFGTKPAAVVASRLFATGQVAGVHVYGNIITVELA	≥ 0.43
HMNTIIIDILPKGLSIAGNQTEPKSLIQQLLMARRADPAQPILLRPAIAVPVQNVVELIDRLTAAGI	-0.412
HMNTKQRTAVMRILKQSSDPVSADDVFAALKDEYPSLALSTVYRNLERFADESMVKKDVWSDGIVRYSLAD	-0.471
HMTPQGALDYSRNAKYLRDQVTAINYLKQARLSLNTTDANYRQTLEQINQAIAKHNQALQQAGVQSQQLAT	0.22
HMKFGETLIDLRKRNGLTQEELAAKLYVTRQAVSRWERGEVTPGIDMLKLIANVLNEPVAHLLDW	-0.435
HMTFEAKKGYINADMSVNVRETASTSATVIITLNPNTEVKVVGEENDFYKIEYKEYKGYVAKRLISDSQVQ	-0.142
HMVFSKEELLFNSDSLLSLYPNDNKLLETILSEKIDHAVKNNDMSMYKEILVIDPKNPLANYHLLM	0.17
HMTMPDFGYMRVSYAEARRQLQAIGISVSTIEKVEDPSHTSATGDMVISQYPAAGSKIEGTVTLYVSVAS	0.332
HMINVGYKFKQIRENAGLTLKQVSAMSGLSVSFISQIERGVVDPSWSSLKKISAALNIKLKDLF	-0.449

Sequence	soluble fraction (log2)
HMAKRYFVTTGVRVRTKPDTANSEVLTVLDEGSEIDYKGDYNNEWVKINYNGQEAYIAKQYVRSEE	-0.13
HMATLTPLGRLQLARYHAQERATLAATAERFQVSTTTVRRWVGRYHQVVAAGGRPTTADMQDRPSRP	-0.00504
HMELAALKILNSPIGKIAIGTSENGLVKLDILTSGQTRAEFSDLPKAHKLALDAADQLAAYF	0.113
HMKSVLDDVAGLGPVRKKALLKAMGGFTRLRAASLDDILAVRAVPEEVAREVFAVLAQYNSVRNNDISE	≥ 0.43
HMKEPPTLEEIKNYFASKLSTELESEKFFNYFESNGWLVGGKTPMKNWQSAANNWLINMSKFN	-0.323
HMETVPMIDLRGMTQEQAEKAIVGLGLTVGTVDHSSSDMPAGQVWFQSVEPKDEVAPGTKVNIIISTGS	-0.128
HMQNRIVNTTQGLAADKRGLLVADETGHTTRPGIFASGDVVNGARTVVEAVAHSKIVAESMHQYMQ	≥ 0.43
HMKTAAKVLGESGGKPVTVQSGRYGPYVQLGTIRATLPKDLDQEAVTLDKALELIDAKAERSGK	-0.0034
HMGAWQQTGFFRNRENAESLAEVLRQRGFSPVVREDTRPSGTVYYAVLVPDDGTTAARLKDAGIDSYPV	0.367
HMYLYHDLSDEAKAMGDEYVSVEHLVLALIRYPNNAVKELFREFGITRERFLQVLSTIRGNQRVTSDNPEA	-0.194
HMDLEIENYDLREILNLFKLDYNFDNVDLKRAQKIALKTHPDKSNLPKEYFMFFMKAFQIVQQIYYYRY	-1.09
HMRYEESVTLGERLLNQSLVALKADNIDDALWERFLREEAGEKSRQEILSDIGLGKRLPVVVAKRLLAPS	-0.982
HMDTTLFGLFQNVILTQEDYEELSRTIVEDLDGLIDRLSAYMTSTGKTYKNHKATLLSWYLQDEKKFK	-1.49
HMLSAGTTEQRLAMLQYQWEKQSETYSALGPNNGVVTLGQIRNTMAKIAELAGFKDAAQFWMPVPMDYDV	-0.491
HMSREMIKSELESISGLGKSGIEKLYTHFINIENIKSASLENIRNIPGISYKVADNIYKHFH	0.385
HMNDEQFAIAKNDLLLSLYDGKEVNNSAAEYIIAWESLEKSPSDYISSQLKNTAESIIKISFD	0.0518
HMTGIELLSHREHQVYDLLTQGRTVTEIGAQLNLAPNTVSTYRARILEKTGTKNDVELALYAQRH	-0.114
HMEFEKYKYHYIFDDVLGLRIVWDRGKEHFSYFVNEELAEKSRKSDKDALEVMFYLEHKRWPEEGELENY	-1.07
HMTTIRQQAEVPLSAAGRRFDQALAEMFPAYSRSRLSGWIKAGAATLDGAPAAPRQLLRGGERVELDVELE	-0.316
HMDSFEEGTYRKNQRGFGFVKIENQEDEIFISKENSLNALNGDRVIVEIIEDKDRTKRAEGKIKKILKHE	-0.086
HMHAPLEVGSVVRIEGQKALGTILSISDREAIVALGALKTTIPLKRLHGVSPAEAQRHLRKTTPAQAVR	0.0546
HMKSDELTKRRRLQIIEAAERSFRKRGFHATTLREIAAEFGMSVGHIYNYFSGKDAILEALIHQKIDD	-0.429
HMEAQFIDINDVRIGTYVYVDLGWIKHPFALNSFKITSRDQIDTLIKLGVKRIRWSPEKSDS	-0.483
HMADVIKLVNTSVLNVRSGAGINYSKIGSLTQGTKVNIISESNGWSKINYNGKIGYISSQYVSEVS	0.324
HMSVKVFRDQILLNNDSDKMLQLSFSNLFGQKVLETSISPGKSAISTGNLPPGIYFITTSPATGVMRVII	-0.544
HMTGLRETIPAALDGERLDRVVALLGDVSRSRASAALEAERVTLDGEVVTLRSHRVREGEELTVAGFE	0.177
HMAVVIPDVKGMTIEEAAPFLAEKGIRYNIIDSVFSKDVDPGAIVEIVPTPGSKVKEGRIVFVTINAK	-0.774
